Like-named read-outs stand apart in the source and are kept apart here.

Common to all, as to assay: ITC
Test [1] deals with AP2 µ2 C-terminal subdomain (C-µ2), residues 160-435 of rat µ2 (rat) (UniProt P84092).
Test [2] addresses T1, AP2 µ2 C-terminal subdomain (C-µ2), residues 160-435 of rat µ2 (rat, UniProt P84092 160-435).
T1 sequence: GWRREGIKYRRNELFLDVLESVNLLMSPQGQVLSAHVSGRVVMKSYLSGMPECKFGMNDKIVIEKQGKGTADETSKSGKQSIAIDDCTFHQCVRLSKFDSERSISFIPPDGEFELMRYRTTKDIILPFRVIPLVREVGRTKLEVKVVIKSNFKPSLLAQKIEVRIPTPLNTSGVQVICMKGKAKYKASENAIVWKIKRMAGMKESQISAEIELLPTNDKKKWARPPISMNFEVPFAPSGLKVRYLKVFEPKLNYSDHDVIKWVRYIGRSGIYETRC

For test [3], the target named is T1, AP2 µ2 C-terminal subdomain (C-µ2), …. The source holds these as a separate data set.

For orientation: Kd means a measure of binding affinity in units of concentration. A higher Kd goes with lower affinity. Take integrin α4 peptide (QYKSILQE): the dissociation constant Kd in test [1] stood at 72 µM.
On the same count and under the same terms, in the case of EGFR peptide (FYRLMS) it was 20 µM.
YKLGFFKRSLPYGTAMEKAQLKPPATSDA [α5-integrin peptide (YKLGFFKRSLPYGTAMEKAQLKPPATSDA)]: in test [2], the Kd is more than 300 µM.
Regarding DYQRLN [TGN38 peptide (DYQRLN)], the dissociation constant (Kd) in test [3] was approximately 4 µM.
KLLMIIHDRREFAKFEKEKMNAKWDTGENPIYKSAVTTVVNPKYEGK [β1-integrin peptide] registered an equilibrium dissociation constant (Kd) in test [2] of more than 300 µM.
As to SYTRFS [transferrin receptor peptide (SYTRFS)], in test [3], the dissociation constant Kd is approximately 15 µM.
WKLGFFKRKYEKMTKNPDEIDETTELSS [α2 integrin peptide (WKLGFFKRKYEKMTKNPDEIDETTELSS)]: the Kd in test [2] is approximately 50 µM.

These data come from article PMC5130146 (Nature structural & molecular biology, 2016).
